From patent US20170298096A1 (CANIMGUIDE THERAPEUTICS, published 2017)
No end group written: not given here.

T1: His-tagged P3028 (human, not fully specified)
T1 construct: the tag is put first after 'PGE73=His-tag-P3028'; also called PGE73; not shown: His-tag
T1 peptide: {His‑tag}-VFDEFKPLVEEPQNLIK

B1: P28R F7H (peptide)
peptide: KKLDTFHVKLSLFTER
B2: P28R F7V (peptide)
peptide: KKLDTFVVKLSLFTER
B3: P28R K2Y (peptide)
peptide: KYLDTFFVKLSLFTER
B4: P28R K2M (peptide)
peptide: KMLDTFFVKLSLFTER
B5: P28R F7R (peptide)
peptide: KKLDTFRVKLSLFTER
B6: P28R K9L (peptide)
peptide: KKLDTFFVLLSLFTER
B7: P28R F13K (peptide)
peptide: KKLDTFFVKLSLKTER
B8: P28R K1R (peptide)
peptide: RKLDTFFVKLSLFTER
B9: P28R K1V (peptide)
peptide: VKLDTFFVKLSLFTER
B10: P28R F13V (peptide)
peptide: KKLDTFFVKLSLVTER
B11: P28R K1L (peptide)
peptide: LKLDTFFVKLSLFTER
B12: P28R K1H (peptide)
peptide: HKLDTFFVKLSLFTER
B13: P28R K1M (peptide)
peptide: MKLDTFFVKLSLFTER
B14: P28R K9H (peptide)
peptide: KKLDTFFVHLSLFTER
B15: P28R F13W (peptide)
peptide: KKLDTFFVKLSLWTER
B16: P28R K1D (peptide)
peptide: DKLDTFFVKLSLFTER
B17: P28R F13E (peptide)
peptide: KKLDTFFVKLSLETER
B18: P28R K2W (peptide)
peptide: KWLDTFFVKLSLFTER
B19: P28R K2T (peptide)
peptide: KTLDTFFVKLSLFTER
B20: P28R F13T (peptide)
peptide: KKLDTFFVKLSLTTER
B21: P28R F13I (peptide)
peptide: KKLDTFFVKLSLITER
B22: P28R F7S (peptide)
peptide: KKLDTFSVKLSLFTER
B23: P28R K9I (peptide)
peptide: KKLDTFFVILSLFTER
B24: P28R K9A (peptide)
peptide: KKLDTFFVALSLFTER
B25: P28R F7W (peptide)
peptide: KKLDTFWVKLSLFTER
B26: P28R K2L (peptide)
peptide: KLLDTFFVKLSLFTER
B27: P28R K2F (peptide)
peptide: KFLDTFFVKLSLFTER
B28: P28R K9F (peptide)
peptide: KKLDTFFVFLSLFTER
B29: P28R K9M (peptide)
peptide: KKLDTFFVMLSLFTER
B30: P28R K2H (peptide)
peptide: KHLDTFFVKLSLFTER
B31: P28R F7K (peptide)
peptide: KKLDTFKVKLSLFTER
B32: P28R K2N (peptide)
peptide: KNLDTFFVKLSLFTER
B33: P28R F13Y (peptide)
peptide: KKLDTFFVKLSLYTER
B34: P28R K2R (peptide)
peptide: KRLDTFFVKLSLFTER
B35: P28R F13Q (peptide)
peptide: KKLDTFFVKLSLQTER
B36: P28R K2A (peptide)
peptide: KALDTFFVKLSLFTER
B37: P28R F13S (peptide)
peptide: KKLDTFFVKLSLSTER
B38: P28R F7I (peptide)
peptide: KKLDTFIVKLSLFTER
B39: P28R K1N (peptide)
peptide: NKLDTFFVKLSLFTER
B40: P28R K9Q (peptide)
peptide: KKLDTFFVQLSLFTER
B41: P28R F13A (peptide)
peptide: KKLDTFFVKLSLATER
B42: P28R K9E (peptide)
peptide: KKLDTFFVELSLFTER
B43: P28R K1W (peptide)
peptide: WKLDTFFVKLSLFTER
B44: P28R K1Q (peptide)
peptide: QKLDTFFVKLSLFTER
B45: P28R K1A (peptide)
peptide: AKLDTFFVKLSLFTER
B46: P28R F13R (peptide)
peptide: KKLDTFFVKLSLRTER
B47: P28R F7L (peptide)
peptide: KKLDTFLVKLSLFTER
B48: P28R F13D (peptide)
peptide: KKLDTFFVKLSLDTER
B49: P28R K2S (peptide)
peptide: KSLDTFFVKLSLFTER
B50: P28R K2D (peptide)
peptide: KDLDTFFVKLSLFTER
B51: P28R F13N (peptide)
peptide: KKLDTFFVKLSLNTER
B52: P28R F13H (peptide)
peptide: KKLDTFFVKLSLHTER
B53: P28R F7N (peptide)
peptide: KKLDTFNVKLSLFTER
B54: P28R K2E (peptide)
peptide: KELDTFFVKLSLFTER
B55: P28R K9N (peptide)
peptide: KKLDTFFVNLSLFTER
B56: P28R K1S (peptide)
peptide: SKLDTFFVKLSLFTER
B57: P28R K2I (peptide)
peptide: KILDTFFVKLSLFTER
B58: P28R K1Y (peptide)
peptide: YKLDTFFVKLSLFTER
B59: P28R K1F (peptide)
peptide: FKLDTFFVKLSLFTER
B60: P28R F7T (peptide)
peptide: KKLDTFTVKLSLFTER
B61: P28R K9D (peptide)
peptide: KKLDTFFVDLSLFTER
B62: P28R K2V (peptide)
peptide: KVLDTFFVKLSLFTER
B63: P28R F7Y (peptide)
peptide: KKLDTFYVKLSLFTER
B64: P28R F13M (peptide)
peptide: KKLDTFFVKLSLMTER
B65: P28R K1T (peptide)
peptide: TKLDTFFVKLSLFTER
B66: P28R F7M (peptide)
peptide: KKLDTFMVKLSLFTER
B67: P28R K1I (peptide)
peptide: IKLDTFFVKLSLFTER
B68: P28R F7Q (peptide)
peptide: KKLDTFQVKLSLFTER
B69: P28R K2Q (peptide)
peptide: KQLDTFFVKLSLFTER
B70: P28R F13L (peptide)
peptide: KKLDTFFVKLSLLTER
B71: P28R K1E (peptide)
peptide: EKLDTFFVKLSLFTER

Target: T1, His-tagged P3028
Assay: chip ELISA

| ELISA signal | Binder |
| --- | --- |
| 364 | B1 |
| 527 | B2 |
| 301 | B3 |
| 400 | B4 |
| 369 | B5 |
| 166 | B6 |
| 220 | B7 |
| 523 | B8 |
| 442 | B9 |
| 446 | B10 |
| 449 | B11 |
| 428 | B12 |
| 457 | B13 |
| 306 | B14 |
| 430 | B15 |
| 373 | B16 |
| 98 | B17 |
| 304 | B18 |
| 331 | B19 |
| 494 | B20 |
| 468 | B21 |
| 700 | B22 |
| 190 | B23 |
| 191 | B24 |

| ELISA signal | Binder |
| --- | --- |
| 380 | B25 |
| 343 | B26 |
| 390 | B27 |
| 174 | B28 |
| 283 | B29 |
| 394 | B30 |
| 232 | B31 |
| 432 | B32 |
| 291 | B33 |
| 417 | B34 |
| 1140 | B35 |
| 309 | B36 |
| 635 | B37 |
| 446 | B38 |
| 445 | B39 |
| 330 | B40 |
| 525 | B41 |
| 240 | B42 |
| 284 | B43 |
| 455 | B44 |
| 466 | B45 |
| 502 | B46 |
| 517 | B47 |
| 112 | B48 |

| ELISA signal | Binder |
| --- | --- |
| 281 | B49 |
| 335 | B50 |
| 862 | B51 |
| 1050 | B52 |
| 348 | B53 |
| 349 | B54 |
| 256 | B55 |
| 344 | B56 |
| 331 | B57 |
| 315 | B58 |
| 332 | B59 |
| 517 | B60 |
| 149 | B61 |
| 317 | B62 |
| 334 | B63 |
| 1190 | B64 |
| 493 | B65 |
| 712 | B66 |
| 483 | B67 |
| 511 | B68 |
| 350 | B69 |
| 448 | B70 |
| 396 | B71 |
